Measured values published in patent US20260265360A1, “USE OF ANTI-FAM19A5 ANTAGONISTS FOR TREATING HEARING DISORDERS” (NEURACLE SCIENCE CO., LTD., priority 2023, published 2026).

Tests used:
Format in all cases: binding
FAM19A5 mutants M1 to M8 [1] = biological target: T1, FAM19A5 mutants M1 to M8 (Homo sapiens, UniProt Q7Z5A7); test: Epitope mapping ELISA with FAM19A5 mutants M1-M8
T1 construct: made in house; host or cells: phage display with helper phage
Procedure: (§1) To further characterize the binding epitopes of the anti-FAM19A5 antibodies disclosed in the present disclosure, the amino acid sequences for the different FAM19 family members (i.e., FAM19A1-5) were aligned. […] The amino acid sequences of these regions were replaced with the consensus sequence of the corresponding regions for the FAM19A1-4 proteins. See Table 13 (the mutated amino acid residues are bolded and underlined).
(§2) The mutant FAM19A5-expressing phages were prepared as follows. To prepare the media for phage culture, 55.6 ml of 2M Glucose (D-(+)-Glucose, Sigma), 5 mL of 1M MgCl2 (Magnesium chloride, Junsei) 1 mL of 34 mg/mL chloramphenicol (Sigma) were added to 2×YT media. Colonies obtained through mono-phage ELISA were selected and placed in 5 mL of prepared media (2×YT-GMC) to be cultured for 16 hours at 37° C. with shaking incubator (VS-8480, Vision). 100 μL of each culture was transferred to 10 mL 2×YT-GMC individually which were cultured at 37° C. in the incubator until detection value at O.D. 600 nm reached 0.5. Once detection value has reached 0.5 at O.D. 600 nm, 5 mL of each culture were obtained as samples to be infected. Following sample preparation, 50 μL of […] was added to individual samples then incubated at 37° C. without shaking for 30 minutes and with shaking for additional 30 minutes. Individual cultures were centrifuged for 15 minutes at 3,850 rpm using Micro centrifuge (Micro12, Hanil). The supernatants of centrifuged cultures were removed to be kept separate and replaced with 5 mL of 2×YT media containing 1 mL of IM IPTG (AG Scientific), 5 mL of 1M MgCl2.1 ml of 70 μg/μL kanamycin (Biopure) and 1 mL of Chloramphenicol. The resulting pellets were dispersed thoroughly in newly added media followed by incubation at 30° C. for 16 hours with stirring.

FAM19A5 antigen = FAM19A5 antigen (Homo sapiens, UniProt Q7Z5A7); test: Cross-competition two-site sandwich ELISA; conditions: antibodies 1-65, P2-A03, P2-F11, 13B4, 2-13, 3-2; cross-competition = S/N ratio lower than 2
Chain of FAM19A5 antigen (Q7Z5A7 44-132): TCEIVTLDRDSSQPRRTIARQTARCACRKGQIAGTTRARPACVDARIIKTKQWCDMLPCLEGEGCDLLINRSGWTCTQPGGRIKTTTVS
Procedure: The term “S/N” refers to the signal to noise ratio, which is measured as follows: [O.D. of 10 ng/ml antigen]/[O.D. of 0 ng/ml antigen].
Next, a two-site sandwich ELISA was used as described below to assess whether the different anti-FAM19A5 antibodies with similar binding epitopes cross-compete with each other.
First, the indicated anti-FAM19A5 antibodies were diluted in 1×PBS to a concentration of 10 μg/mL. The diluted anti-FAM19A5 antibodies (10 μg/mL in 1×PBS) (“capture antibody”) were used to coat the 96-well plates (100 μL/well) at 37° C. for approximately 1 hour. After the incubation, the plates were washed with the washing buffer (0.01% Tween-20/PBS; also called 0.01% PBST) for a total of five washes, blocked with the blocking solution (5% BSA/PBS; also called 5% PBSA) (250 μL/well) for one hour at 37° C., and then washed again. Next, 100 μg/mL of the FAM19A5 antigen (diluted in PBS containing 5% BSA, 0.01% Tween-20; also called 5% PBSAT; “diluent buffer) was added to each of the wells, and the 96-well plates were incubated for 2 hours at 37° C. After the incubations, the plates were washed using 0.01% PBST for a total of five washes. After the final wash, the indicated biotinylated anti-FAM19A5 antibodies (“detection antibody”) (diluted to lug/mL in 5% PBSAT) were added to the relevant wells (100 μL volume) and the plates were incubated for an additional 1 hour at 37° C. Afterwards, the plates were washed again with 0.01% PBST (five total washes). Next, 100 μL of the diluted (1/2000 in 5% PBSAT) Streptavidin-HRP (1 mg/mL, Sigma, USA) was added to the wells, and the plates were incubated for 30 minutes at room temperature. The plates were then washed and treated with 100 μL of the TMB substrate ([…], Thermo Fisher Scientific). After an additional 30-minute incubation at room temperature, the color change reaction was induced by the addition of the TMB substrate. This reaction was stopped using 50 μL of sulfuric acid (2N H2SO4), and the extent of color change was detected via absorption at 450 nm with reference wavelength at 620 nm using a 96 well microplate reader (Molecular Device).

FAM19A5 mutants M1 to M8 [2] = biological target: T2, FAM19A5 mutants M1 to M8 (Homo sapiens, UniProt Q7Z5A7, D109K/G107E/I112P/L110T/N113D/R114N); test: Epitope mapping ELISA with FAM19A5 mutants M1-M8
T2 construct: made in house; host or cells: phage display with helper phage
T2 sequence (Q7Z5A7 26-125 isoform Q7Z5A7-2 G100E/D102K/L103T/I105P/N106D/R107N): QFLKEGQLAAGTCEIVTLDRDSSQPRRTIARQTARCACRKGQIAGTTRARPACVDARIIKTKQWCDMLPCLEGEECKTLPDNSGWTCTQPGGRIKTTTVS
Procedure: as §1, §2

T1 sequence (Q7Z5A7 with tags, fused parts or gaps isoform Q7Z5A7-2, change not shown): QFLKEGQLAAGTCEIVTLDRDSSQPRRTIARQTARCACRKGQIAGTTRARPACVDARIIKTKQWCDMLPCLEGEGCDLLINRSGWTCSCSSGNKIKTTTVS

Row | Molecule | binding to FAM19A5 mutant M8 (FAM19A5 mutants M1 to M8 [1]) | cross-competition with the other anti-FAM19A5 antibodies (FAM19A5 antigen) | binding to FAM19A5 mutant M7 (FAM19A5 mutants M1 to M8 [2])
1 | P2-F11: anti-FAM19A5 antibody; VH SEQ ID NO: 165, VL SEQ ID NO: 176 (antibody, V domains shown, P2-F11 VH; P2-F11 VL) VH: QEQLVESGGRLVTPGTTLTLTCTVSGFSLSSYGVSWVRQAPGKGLEWIGYIANNYNPHYASWAKGRFTISKTSSTTVDLKMTSLTTEDTATYFCARDNYGMDPWGPGTLVTVSS VL: ELDLTQTPSSVSAAVGGTVTINCQASQSVYNNKNLAWYQQKPGQPPKLLIYAASTLASGVSSRFKGSGSGTQFTLTISDVQCDDAATYYCQGEFSCSSADCNAFGGGTELEIL | failed to bind | cross-competed with one another | –
2 | P1-F02: anti-FAM19A5 antibody; VH SEQ ID NO: 161, VL SEQ ID NO: 172 (antibody, V domains shown, P1-F02 VH; P1-F02 VL) VH: QSLEESGGRLVTPGTPLTLTCTASGFSLSNYYMGWVRQAPGEGLEWIGIIYASGSTYYASWAKGRFTISKTSTTVDLKMTSLTTEDTATYFCARIDIGVGDYGWAYDRLDLWGQGTLVTVSS VL: ELDMTQTPPSLSASVGETVRIRCLASEDIYSGISWYQQKPGKPPTLLIYGASNLESGVPPRFSGSGSGTDYTLTIGGVQAEDAATYYCLGGYSYSSITFGAGTNVEIK | failed to bind | – | –
3 | P2-F07: anti-FAM19A5 antibody; VH SEQ ID NO: 164, VL SEQ ID NO: 175 (antibody, V domains shown, P2-F07 VH; P2-F07 VL) VH: QSLEESGGRLVTPGTPLTLTCTASGFSLSSYYMNWVRQAPGKGLEWIGIIYPSGTTYYAGWAKGRFTISKTSTTVDLKITSPTSEDTATYFCARTVSGYFDIWGPGTLVTVSL VL: ELDLTQTPPSLSASVGGTVTINCLASEDIYSALAWYQQKPGKPPTLLISGTSNLESGVPPRFSGSGSGTDYTLTIGGVQAEDAATYFCQGYSSYPLTFGAGTNVEIK | failed to bind | – | –
4 | P1-A08: anti-FAM19A5 antibody; VH SEQ ID NO: 160, VL SEQ ID NO: 171 (antibody, V domains shown, P1-A08 VH; P1-A08 VL) VH: QSLEESGGRLVTPGTPLTLTCTASGFSLSTYYMSWVRQAPGKGLEWIGIVYPSGTTYYANWAKGRFTISTASTTVDLMITSPTTEDTATYFCARGDSFGYGLWGPGTLVTVSS VL: ELVLTQSPSVQVNLGQTVSLTCTADTLSRSYASWYQQKPGQAPVLLIYRDTSRPSGVPDRFSGSSSGNTATLTISGAQAGDEADYYCATSDGSGSNYQYVFGGGTQLTVT | failed to bind | – | –
5 | P2-A03: anti-FAM19A5 antibody; VH SEQ ID NO: 163, VL SEQ ID NO: 174 (antibody, V domains shown, P2-A03 VH; P2-A03 VL) VH: QSVEESGGRLVTPGTPLTLTCTVSGFSLNNYDMSWVRQAPGKGLEYIGFMDTDGSAYYATWAKGRFTISRTSTTVDLKMTSPTTEDTATYFCARRGSSYYGGIDIWGPGTPVTVSL VL: ELDLTQTPASVSEPVGGTVTIKCQASQSIGGNLAWYQQKPGQPPKLLIYRASTLASGVPSRFKGSGSGTDFTLTISDLECADAATYYCQSPAYDPAAYVGNAFGGGTELEIL | failed to bind | cross-competed with one another | –
6 | P2-A01: anti-FAM19A5 antibody; VH SEQ ID NO: 162, VL SEQ ID NO: 173 (antibody, V domains shown, P2-A01 VH; P2-A01 VL) VH: QEQLVESGGRLVTPGTPLTLSCTASGFFLSGYYMSWVRQAPGKGLEWIGIIYPSGSTDYASWAKGRFTISKTSTTVDLKITTPTTEDTATYFCARVAGYVGYGYETFFDIWGPGTLVTVSL VL: ELVMTQTPPSLSASVGETVRIRCLASEDIYSGISWYQQKPGKPPTLLIYGASNLESGVPPRFSGSGSGSDYTLTIGGVQAEDAATYYCLGGVTYSSTGTHLTFGAGTNVEIK | failed to bind | – | –

More lines, now with the values ahead:

Row | binding to FAM19A5 mutant M8 (FAM19A5 mutants M1 to M8 [1]) | cross-competition with the other anti-FAM19A5 antibodies (FAM19A5 antigen) | binding to FAM19A5 mutant M7 (FAM19A5 mutants M1 to M8 [2]) | Molecule
7 | failed to bind | – | reduced binding | 15A9: anti-FAM19A5 antibody; VH SEQ ID NO: 158, VL SEQ ID NO: 169 (antibody, V domains shown, 15A9 VH; 15A9 VL) VH: QVQLQESGPGLVKPSETLSLTCTVSGGSISSYYWSWIRQPPGKGLEWIGYIYPSGSTNYNPSLKSRVTISVDTSKNQFSLNLKSVTAVDTAVYYCARVNPFGYYYAMDVWGQGTTVTVSS VL: DIQMTQSPSSLSASVGDRITISCRASQSISTSLNWYQQTPGKAPRLLIYGASTLQSGVPSRFSGGGSGTDFSLTITSLQPEDFATYYCQESASIPRTFGQGTKLDIK
8 | failed to bind | – | reduced binding | 13F7: anti-FAM19A5 antibody; VH SEQ ID NO: 157, VL SEQ ID NO: 168 (antibody, V domains shown, 13F7 VH; 13F7 VL) VH: QVQLQEWGAGLLKPSETLSLTCAINAESFNGYSWTWIRQTPGKGLEWIGEISHFGSANYNPSLKSRATISADKSKNQFSLKLTSVTAVDTAVYYCARALRGTYSRFYYGMDVWGQGTTVTVSS VL: DIVMTQTPLSLPVAPGEPASISCRSSQSLLHSNGYNYLDWYVQKPGQPPQLLIYLGSNRASGVPDRFSGSGSGTDFTLKISRVEAEDVGVYYCMQARQTPLTFGGGTKVEIK
